The data set is described as follows: protein stability index of a GFP-peptide fusion (GPS, HEK-293T) (PSI 1-6); higher = more stable. As to conditions: c terminus: a fixed tail appended.

± gives the standard deviation.
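Further: 24-mer peptide tiles fused after GFP, lentivirally expressed, FACS-sorted into six equal bins by GFP/DsRed ratio, decoded by Illumina sequencing, PSI is the read-weighted mean bin number.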

Take RDAAGKPQRPRSAPRTSSCAERLQ [FCHO1]: the protein stability index reads like this: (treatment: DMSO) 4.75 ± 0.15; (treatment: MLN4924 1 uM, 8 h) 4.68 ± 0.098. Regarding LRTLSRAKFWPRRRFNFFVLENNL [DNAAF3], the protein stability index worked out at 2.33 ± 0.99 (treatment: DMSO) and 2.15 ± 0.087 (treatment: MLN4924 1 uM, 8 h).

Take LWLTASQPCSIVDVEFLPVYHPSP [LPCAT4]: the protein stability index reads like this: (treatment: DMSO) 3.02 ± 0.74; (treatment: MLN4924 1 uM, 8 h) 2.53 ± 0.37. In the same order, the values of RGYPPPRDSYSSSSRGAPRGGGRG [RBMX] are 5.12 ± 0.36 and 5.3 ± 0.23. For the sequence AALDGGRSLEELTRLAFELFAEEQ [LPCAT4], the protein stability index reads like this: (treatment: DMSO) 2.91 ± 0.24; (treatment: MLN4924 1 uM, 8 h) 3.33 ± 0.38. For CWQGDPRVRPTFQEITSETEDLCE [RIPK4], the protein stability index by setting is: (treatment: DMSO) 4.44 ± 0.67; (treatment: MLN4924 1 uM, 8 h) 4.72 ± 0.24.

Turning to NLRLQRKLQREMERREALCRQLSE [CCDC6], the protein stability index (treatment: DMSO) came out at 3.52 ± 0.27 and the protein stability index (treatment: MLN4924 1 uM, 8 h) worked out at 3.63 ± 0.43. In turn, LAGQKDELQLSDLLKQGYNKTLLR [PKD2L1] yielded a protein stability index (treatment: DMSO) of 3.24 ± 0.23 and a protein stability index (treatment: MLN4924 1 uM, 8 h) of 3.39 ± 0.4. With MMKPQAETGEAARDPSLRPARTVL, the protein stability index is 4.18 ± 0.13 (treatment: DMSO) and 4.33 ± 0.13 (treatment: MLN4924 1 uM, 8 h). On to RNQKGEQVFRLAFRSGALDLDSCS [MYORG], for which the protein stability index by setting is: (treatment: DMSO) 2.42 ± 0.33; (treatment: MLN4924 1 uM, 8 h) 2.48 ± 0.4. For the sequence MAGNFWQSSHYLQWILDKQDLLKE [CCNC], the protein stability index (treatment: DMSO) amounted to 2.34 ± 0.32 and the protein stability index (treatment: MLN4924 1 uM, 8 h) is 2.57 ± 0.38. The matching figures for SRWSEASRAILQRVQAAAFGPGQT [ALKBH7]: 3.01 ± 0.38 and 3.19 ± 0.39. For RYTQGTGGDEVDDSVSVNDIDLSL [ZC3H15], the protein stability index is, setting by setting: (treatment: DMSO) 5.27 ± 0.29; (treatment: MLN4924 1 uM, 8 h) 4.89 ± 0.13. NTEERQKRQVTHFQFLSWPDYGVP [PTPN9]: the protein stability index came to 3.17 ± 0.57 (treatment: DMSO) and 3.042 ± 0.028 (treatment: MLN4924 1 uM, 8 h).

For VIGALLRFNQAILVSRHDPASRRR [LPCAT4], the protein stability index (treatment: DMSO) came to 2.28 ± 0.22 and the protein stability index (treatment: MLN4924 1 uM, 8 h) amounted to 2.36 ± 0.19. In the same order, the values of HTPLISKSQSLRSVRRSESWARPR [RASAL3] are 3.45 ± 0.29 and 3.66 ± 0.22. Sequence LIDQRYFQVLCSINSIIHNPRAPV [CEP70] displayed a protein stability index (treatment: MLN4924 1 uM, 8 h) of 2.07 ± 0.12.

For DYELLQMLQIVVGVRDSGSPPLHA [PCDHGC5], the protein stability index (treatment: DMSO) was 2.3 ± 0.41 and the protein stability index (treatment: MLN4924 1 uM, 8 h) came to 2.18 ± 0.17. For FSFMYILVGLTVIGAFLNLVVLRF [KCNK9], the protein stability index runs as follows: (treatment: DMSO) 3.18 ± 0.13; (treatment: MLN4924 1 uM, 8 h) 3.25 ± 0.31. As for PSLEDLFDLCDRTFSLKTVLMIAI [CSNK1G3], the protein stability index by setting is: (treatment: DMSO) 2.5 ± 0.42; (treatment: MLN4924 1 uM, 8 h) 2.38 ± 0.43. In the same order, the values of LLSRNQLSTAASLGPSGLQNHGQH [LCOR] are 3.28 ± 0.095 and 3.46 ± 0.23. In the same order, the values of GPQPTMEGDVLDTLEALGYKGPLL [FAM98B] are 4.18 ± 0.32 and 4.07 ± 0.38.

Regarding LQGTESLNRATQSIERSHRIATET [VTI1B], the protein stability index (treatment: DMSO) was found to be 4.65 ± 0.18 and the protein stability index (treatment: MLN4924 1 uM, 8 h) came out at 4.76 ± 0.14. Take LERVRVSCTIIFLASIFQLAMWTT [TMEM175]: the protein stability index is, setting by setting: (treatment: DMSO) 3.24 ± 0.4; (treatment: MLN4924 1 uM, 8 h) 3.29 ± 0.23. As to FMYFLRGSLPWQGLKADTLKERYQ [CSNK1G1], the protein stability index came to 2.43 ± 0.35 (treatment: DMSO) and 2.26 ± 0.17 (treatment: MLN4924 1 uM, 8 h). MLQIVVGVRDSGSPPLHANTSLHV [PCDHGC5]: the protein stability index turned out to be 2.6 ± 0.47 (treatment: DMSO) and 2.91 ± 0.72 (treatment: MLN4924 1 uM, 8 h). For the sequence LSTDMVHAASDPSSSSGRLSEPDP [SMOC2], the protein stability index runs as follows: (treatment: DMSO) 5.29 ± 0.24; (treatment: MLN4924 1 uM, 8 h) 5.38 ± 0.15. As to VLKAHNEYRQKHGVPPLKLCKNLN [GLIPR2], the protein stability index was 2.92 ± 0.17 (treatment: DMSO) and 3.33 ± 0.18 (treatment: MLN4924 1 uM, 8 h). Regarding FASLRPSEPFLTPYLLGPDKNLTE [SLC19A2], the protein stability index is 2.59 ± 0.48 (treatment: DMSO) and 3.17 ± 0.62 (treatment: MLN4924 1 uM, 8 h). For PRIIKAAPSCAIMISTYEFGKSFF [SLC25A39], the protein stability index is 2.56 ± 0.49 (treatment: DMSO) and 2.28 ± 0.32 (treatment: MLN4924 1 uM, 8 h). Consider GRLEGLIQPDDLINQLTFIMDANQ [FAF2], for which the protein stability index is 2.8 ± 0.2 (treatment: DMSO) and 2.77 ± 0.5 (treatment: MLN4924 1 uM, 8 h).

For HARNGLSLKEEHRAYDLLRAASEN [IKZF1], the protein stability index worked out at 3.73 ± 0.28 (treatment: DMSO) and 4.03 ± 0.35 (treatment: MLN4924 1 uM, 8 h). Take DKFVIVDCRYPYEYEGGHIKTAVN [CDC25B]: the protein stability index turned out to be 2.48 ± 0.28 (treatment: DMSO) and 2.21 ± 0.23 (treatment: MLN4924 1 uM, 8 h). Take NRRMVGPDVIPLPHIYGARIKGVE [FAM189A2]: the protein stability index is, setting by setting: (treatment: DMSO) 3.19 ± 0.11; (treatment: MLN4924 1 uM, 8 h) 3.15 ± 0.27.

FFYTAATNNPRFDKMEGNPICVQI [CRY1] had a protein stability index (treatment: DMSO) of 2.92 ± 0.33 and a protein stability index (treatment: MLN4924 1 uM, 8 h) of 2.83 ± 0.67.

For the sequence LSRKKRLELDDNLDTERPVQKRAR [TRIB3], the protein stability index by setting is: (treatment: DMSO) 4.79 ± 0.14; (treatment: MLN4924 1 uM, 8 h) 4.62 ± 0.37. With GEKPYECVQCGKSYSQSSNLFRHQ [ZNF24], the protein stability index runs as follows: (treatment: DMSO) 2.4 ± 0.62; (treatment: MLN4924 1 uM, 8 h) 2.83 ± 0.56.

Values taken from the supplement of paper PMC10567573.
